{"source": "patent US7220822", "key": {"[1]": {"molecular_target": "CD80-Ig (extracellular domain of CD80 fused with the constant region of mouse IgG1 heavy chain) (mouse)", "experiment": "SPR direct kinetics, peptide 1.50E+03 nM over immobilized CD80-Ig"}, "[2]": {"molecular_target": "CD80-Ig (extracellular domain of CD80 fused with the constant region of mouse IgG1 heavy chain) (mouse)", "experiment": "SPR direct kinetics, peptide 3.00E+03 nM over immobilized CD80-Ig"}, "[3]": {"molecular_target": "CD80-Ig (extracellular domain of CD80 fused with the constant region of mouse IgG1 heavy chain) (mouse)", "experiment": "SPR competitive kinetics, peptide 0.125 × 10^5 nM with 3.2 µM CD28-Ig (competitor) over captured CD80-Ig"}, "[4]": {"molecular_target": "CD80-Ig (extracellular domain of CD80 fused with the constant region of mouse IgG1 heavy chain) (mouse)", "experiment": "SPR direct kinetics, peptide 6.00E+03 nM over immobilized CD80-Ig"}, "[5]": {"molecular_target": "CD80-Ig (extracellular domain of CD80 fused with the constant region of mouse IgG1 heavy chain) (mouse)", "experiment": "SPR competitive kinetics, peptide 1 × 10^5 nM with 3.2 µM CD28-Ig (competitor) over captured CD80-Ig"}, "[6]": {"molecular_target": "CD80-Ig (extracellular domain of CD80 fused with the constant region of mouse IgG1 heavy chain) (mouse)", "experiment": "SPR (BIACORE), direct binding to immobilized CD80-Ig, linear regression plot"}, "[7]": {"molecular_target": "CD80-Ig (extracellular domain of CD80 fused with the constant region of mouse IgG1 heavy chain) (mouse)", "experiment": "SPR direct kinetics, peptide 3.75E+02 nM over immobilized CD80-Ig"}, "[8]": {"molecular_target": "CD80-Ig (extracellular domain of CD80 fused with the constant region of mouse IgG1 heavy chain) (mouse)", "experiment": "SPR competitive kinetics, peptide 0.25 × 10^5 nM with 3.2 µM CD28-Ig (competitor) over captured CD80-Ig"}, "[9]": {"molecular_target": "CD80-Ig (extracellular domain of CD80 fused with the constant region of mouse IgG1 heavy chain) (mouse)", "experiment": "SPR competitive kinetics, peptide 3 × 10^5 nM with 3.2 µM CD28-Ig (competitor) over captured CD80-Ig"}, "[10]": {"molecular_target": "CD80-Ig (extracellular domain of CD80 fused with the constant region of mouse IgG1 heavy chain) (mouse)", "experiment": "SPR competitive kinetics, average over peptide concentrations; competitor CD28-Ig"}, "[11]": {"molecular_target": "CD80-Ig (extracellular domain of CD80 fused with the constant region of mouse IgG1 heavy chain) (mouse)", "experiment": "SPR (BIACORE), EL CD28 peptide injected over amine-coupled CD80-Ig (1488 RU); slope of ln dR/dt vs t plotted against the peptide concentration, ka is the slope of this plot"}, "[12]": {"molecular_target": "CD80-Ig (extracellular domain of CD80 fused with the constant region of mouse IgG1 heavy chain) (mouse)", "experiment": "SPR direct kinetics, peptide 7.50E+02 nM over immobilized CD80-Ig"}, "[13]": {"molecular_target": "CD80-Ig (extracellular domain of CD80 fused with the constant region of mouse IgG1 heavy chain) (mouse)", "experiment": "SPR competitive kinetics, peptide 0.5 × 10^5 nM with 3.2 µM CD28-Ig (competitor) over captured CD80-Ig"}, "[14]": {"molecular_target": "CD80-Ig (extracellular domain of CD80 fused with the constant region of mouse IgG1 heavy chain) (mouse)", "experiment": "SPR (BIACORE), peptide over amine-coupled CD80-Ig, 37 C"}, "[15]": {"molecular_target": "CD80-Ig (extracellular domain of CD80 fused with the constant region of mouse IgG1 heavy chain) (mouse)", "experiment": "SPR competitive kinetics, peptide 2 × 10^5 nM with 3.2 µM CD28-Ig (competitor) over captured CD80-Ig"}}, "data": [{"binder": "Ac-KIEFMYPPPYLDNERSNGTI-NH2", "note": "[EL-CD28 (end-blocked L CD28 peptide mimetic)]", "values": [{"measurement": "koff", "setting": "[1]", "result": 0.242, "unit": "s⁻¹"}, {"measurement": "kon", "setting": "[1]", "result": 115000, "unit": "M⁻¹ s⁻¹"}, {"measurement": "koff", "setting": "[2]", "result": 0.214, "unit": "s⁻¹"}, {"measurement": "kon", "setting": "[2]", "result": 137000, "unit": "M⁻¹ s⁻¹"}, {"measurement": "Kd", "setting": "[3]", "result": 1380, "unit": "nM"}, {"measurement": "koff", "setting": "[3]", "result": 0.101, "unit": "s⁻¹"}, {"measurement": "kon", "setting": "[3]", "result": 73400, "unit": "M⁻¹ s⁻¹"}, {"measurement": "koff", "setting": "[4]", "result": 0.273, "unit": "s⁻¹"}, {"measurement": "kon", "setting": "[4]", "result": 111000, "unit": "M⁻¹ s⁻¹"}, {"measurement": "Kd", "setting": "[5]", "result": 2540, "unit": "nM"}, {"measurement": "koff", "setting": "[5]", "result": 0.0803, "unit": "s⁻¹"}, {"measurement": "kon", "setting": "[5]", "result": 31600, "unit": "M⁻¹ s⁻¹"}, {"measurement": "Kd", "setting": "[6]", "result": 2340, "unit": "nM"}, {"measurement": "koff", "setting": "[7]", "result": 0.399, "unit": "s⁻¹"}, {"measurement": "kon", "setting": "[7]", "result": 246000, "unit": "M⁻¹ s⁻¹"}, {"measurement": "Kd", "setting": "[8]", "result": 3360, "unit": "nM"}, {"measurement": "koff", "setting": "[8]", "result": 0.0195, "unit": "s⁻¹"}, {"measurement": "kon", "setting": "[8]", "result": 3360, "unit": "M⁻¹ s⁻¹"}, {"measurement": "Kd", "setting": "[9]", "result": 2920, "unit": "nM"}, {"measurement": "koff", "setting": "[9]", "result": 6.89, "unit": "s⁻¹"}, {"measurement": "kon", "setting": "[9]", "result": "2.36e+06", "unit": "M⁻¹ s⁻¹"}, {"measurement": "Kd", "setting": "[10]", "result": 2790, "unit": "nM"}, {"measurement": "kon", "setting": "[11]", "result": 113000, "unit": "M⁻¹ s⁻¹"}, {"measurement": "koff", "setting": "[12]", "result": 0.274, "unit": "s⁻¹"}, {"measurement": "kon", "setting": "[12]", "result": 110000, "unit": "M⁻¹ s⁻¹"}, {"measurement": "Kd", "setting": "[13]", "result": 5000, "unit": "nM"}, {"measurement": "koff", "setting": "[13]", "result": 0.316, "unit": "s⁻¹"}, {"measurement": "kon", "setting": "[13]", "result": 63200, "unit": "M⁻¹ s⁻¹"}, {"measurement": "maximum response units", "setting": "[14]", "result": 668, "unit": "RU"}, {"measurement": "Kd", "setting": "[15]", "result": 1560, "unit": "nM"}, {"measurement": "koff", "setting": "[15]", "result": 0.0862, "unit": "s⁻¹"}, {"measurement": "kon", "setting": "[15]", "result": 55100, "unit": "M⁻¹ s⁻¹"}]}]}
